B1: NB13 (VHH)
VHH: QVQLQESGGGSVQTGGSLRLSCAASGYTASFSWIGYFRQAPGKEREGVAVINVGVGSTYYADSVKGRFTISRDNTENTISLEMNSLKPEDTGLYYCAGSLRWSRPPNPISEDAYNYWGQGTQVTVSS
notes: also called nanobody 13; not shown: His tag (NBs purified on Ni-NTA and detected with anti-His)
B2: NB7 (VHH)
VHH: QVQLQESGGGSVQAGGSLRLSCTAPGYTDSNYYMSWFRQAPGKEREWVAGVNTGRGSTSYADSVKGRFTISQDNAKNTMFLQMNSLKPEDTAIYYCAVAACHFCDSLPKTQDEYILWGQGTQVTVSS
notes: also called nanobody 7; anti-PSMA NB7; not shown: His tag (NBs purified on Ni-NTA and detected with anti-His)
B3: NB8 (VHH)
VHH: QVQLQESGGGSVQAGGSLRLSCARSGWPYSTYSMNWFRQAPGKEREAVAGISSTMSGIIFAESKAGQFTISQDNAKNTVYLQMNNLKPEDTAIYYCAARRDYSLSSSSDDFDYWGQGTQVTVSS
notes: also called nanobody 8; PDB 6XXO; not shown: His tag (NBs purified on Ni-NTA and detected with anti-His)
B4: NB37 (VHH)
VHH: QVQLQESGGGSVEAGGSLRLSCARSGWPYSTYSMNWFRQAPGKEREAVAGISSTMSGIIFAESKAGQFTISQDNAKNTVYLQMNNLKPEDTAIYYCAARRDYSLSSSSDDFDYWGQGTQVTVSS
notes: also called nanobody 37; PDB 6XXP; not shown: His tag (NBs purified on Ni-NTA and detected with anti-His)

Target: T1, purified extracellular domain of PSMA (prostate-specific membrane antigen), residues 44-750 (UniProt Q04609 44-750)
T1 construct: range 44-750; The limits 44-750 are stated for the immunogen; Docking used PDB 1Z8L; also called soluble PSMA; monomeric PSMA
T1 sequence (Q04609 44-750 limits assumed): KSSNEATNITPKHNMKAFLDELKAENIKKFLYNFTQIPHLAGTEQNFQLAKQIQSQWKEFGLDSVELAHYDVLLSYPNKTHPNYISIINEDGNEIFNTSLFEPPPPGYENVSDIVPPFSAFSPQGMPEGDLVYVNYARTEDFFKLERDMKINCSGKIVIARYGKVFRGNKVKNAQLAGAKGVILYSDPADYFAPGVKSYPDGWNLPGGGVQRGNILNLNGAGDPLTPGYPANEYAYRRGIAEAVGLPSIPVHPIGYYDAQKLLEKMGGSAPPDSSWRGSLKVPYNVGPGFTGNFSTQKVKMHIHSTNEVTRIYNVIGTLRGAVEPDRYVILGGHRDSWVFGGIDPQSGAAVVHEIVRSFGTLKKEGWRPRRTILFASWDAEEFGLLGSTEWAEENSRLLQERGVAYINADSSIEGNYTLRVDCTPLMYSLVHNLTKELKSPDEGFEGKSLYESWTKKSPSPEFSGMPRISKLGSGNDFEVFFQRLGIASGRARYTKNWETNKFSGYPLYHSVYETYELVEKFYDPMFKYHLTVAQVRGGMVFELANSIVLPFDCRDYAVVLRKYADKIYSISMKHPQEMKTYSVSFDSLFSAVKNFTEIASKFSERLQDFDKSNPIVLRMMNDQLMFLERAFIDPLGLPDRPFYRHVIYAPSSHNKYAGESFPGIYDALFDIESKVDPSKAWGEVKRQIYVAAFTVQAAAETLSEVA
Assay: SPR (ProteOn XPR36), NB immobilised, soluble PSMA as analyte, 1:1 Langmuir, 25 C
Experimental: The bottom curve in each sensogram represents the lowest concentration, while the top curve represents the highest concentration. A FACS analysis (n=3) was used to determine the binding of these NBs (0.1-1,000 nM) to PC3-PIP (PSMA⁺) cells (1E) and to PC3-flu (PSMA⁻) cells (1F). For convenience, each fluorescence value was normalized to the fluorescence values at the highest and lowest concentrations of PC3-PIP cells.
The affinity of each NB to PSMA was determined by using surface plasmon resonance (SPR) spectroscopy on a ProteOn XPR36 chip (Bio-Rad, CA). The chip was activated by using sulfo-NHS (0.1 M N-hydroxysuccinimide) and EDC [0.4 M 1-ethyl-3-(3-dimethylaminopropyl)-carbodiimide]. Each NB (0.2 μg) was immobilized in a 10 mM sodium acetate buffer, pH 5.0, at a flow rate of 30 μl/min. Bovine serum albumin (BSA) (3 μg) was immobilized on the chip as a negative control. Unbound esters were deactivated with 1 M ethanolamine HCl at pH 8.5. […] During this time, the association between the NBs and PSMA was measured. The dissociation was measured while flowing 50 μ1/min PBST (namely, a phosphate-buffered saline with 0.005% Tween). For each protein complex, a binding sensogram was generated by subtracting the values of the PSMA response to BSA from those of the PSMA response to the NBs. The dissociation constant (KD) was determined from the Langmuir 1:1 kinetic model. The temperature throughout the binding measurements was set at 25° C.

Row | Binder | Kd [nM] | koff [s⁻¹] | kon [M⁻¹ s⁻¹]
1 | B1 | 0.6 | 2.2e-05 | 36000
2 | B2 | 0.055 | 3.9e-05 | 710000
3 | B3 | 6 | 0.00012 | 20000
4 | B4 | 3.4 | 7.5e-05 | 22000
